According to IntAct's records for PubMed 21802063:

B1: Cell adhesion molecule-related/down-regulated by oncogenes (Rattus norvegicus (Rat)), O35158 (parent)
chain: MHPDLGPLWKLLYVLVILCSSVSSDLATYFISEPLSAVQKLGRPVVLHCSAKPVTARISWLHNGKRLDRNTEQIKIHRGTLTILSLNPSLSGCYQCVANNSVGAVVSGPATVSADALADFDSSTMHVITAEKKNTGFIGCRVPESNPKAEVRYKIRGKWLMYSTGNYIILPSGNLQILNVSSKDKGSYKCAAYNPVTSELKVEPAGRKLLVSRPSSDGFHILHPALSQALAVLPHSPVTLECVVSGVPASQVYWLKDGQDCLSGSNWRRLYSHLATASIDPADSGNYSCVVGNNSSGDVKHVTYTVNVLEHASISKGLHDQKVSLGATVRFTCEVHGNPAPNRTWFHNAQPIRPSSRHLTEGSVLKITGVIMEDSGLYQCMADNGIGFMQSTGRLQIEQDSGQRPVIVTAPANVEVTDGDFVTLSCNATGEPVPVIHWYGRHGLITSHPSQVLRSKSRKSHLFRPGDLDPEPVYLIMSQAGSSSLSIQAVTREHAGKYTCEAVNKHGSTQSEAFLTVVPFETNTKAEPVTPSEASQNDERDPRDGSESGLLNLFPVKVHSGGVELPAEKNASVPDAPNILSPPQTHMPDTYTLVWRTGRDGGMPINAYFVKYRKLDDGSGAVGSWHTVRVPGSESELHLTELEPSSLYEVLMVARSAVGEGQPAMLTFRTSKEKMASSKNTQASFPPVGIPKRPVTSEASNSNFGVVLTDSSRHSGVPEAPDRPTISMASETSVYVTWIPRANGGSPITAFKVEYKRMKSSDWLVAAEDIPPSKLSVEVRSLEPGSIYKFRVIVINHYGESFRSSASRPYQVAGFPNRFSNRPITGPHIAYTEAVSDTQIMLKWTYIPSSNNNTPIQGFYIYYRPTDSDNDSDYKRDVVEGSKQWHTIGHLQPETSYDIKMQCFNEGGESEFSNVMICETKVKRVPGASEYPMKELSTPPSSSGNGGNVGPATSPARSSDMLYLIVGCVLGVMVLILLVFIALCLWKSRQQSAIQKYDPPGYLYQGSEINGQMVEYTTLSGTARINGSVHGGFLSKGSLSNGCSHLHHKGPNGVNGILNGTINGGLYSAHTSSLTRTCVEFEHPHHLVNGGAVYTAVPQMDPLECINCRNCRNNNRCFTKTNSPLPVVPVVASYPQDGLEMKPLGVMKFPVCPVSTVPDGGQIPEECLKDSVAPAPTQRTCRQDNTSDINSDSTEDTAEFNRGDSSGHSEAEDKVFSWSPLILSPVLEDCSEKTAWSPPGPPLDGLSVVLQQAQET
partner: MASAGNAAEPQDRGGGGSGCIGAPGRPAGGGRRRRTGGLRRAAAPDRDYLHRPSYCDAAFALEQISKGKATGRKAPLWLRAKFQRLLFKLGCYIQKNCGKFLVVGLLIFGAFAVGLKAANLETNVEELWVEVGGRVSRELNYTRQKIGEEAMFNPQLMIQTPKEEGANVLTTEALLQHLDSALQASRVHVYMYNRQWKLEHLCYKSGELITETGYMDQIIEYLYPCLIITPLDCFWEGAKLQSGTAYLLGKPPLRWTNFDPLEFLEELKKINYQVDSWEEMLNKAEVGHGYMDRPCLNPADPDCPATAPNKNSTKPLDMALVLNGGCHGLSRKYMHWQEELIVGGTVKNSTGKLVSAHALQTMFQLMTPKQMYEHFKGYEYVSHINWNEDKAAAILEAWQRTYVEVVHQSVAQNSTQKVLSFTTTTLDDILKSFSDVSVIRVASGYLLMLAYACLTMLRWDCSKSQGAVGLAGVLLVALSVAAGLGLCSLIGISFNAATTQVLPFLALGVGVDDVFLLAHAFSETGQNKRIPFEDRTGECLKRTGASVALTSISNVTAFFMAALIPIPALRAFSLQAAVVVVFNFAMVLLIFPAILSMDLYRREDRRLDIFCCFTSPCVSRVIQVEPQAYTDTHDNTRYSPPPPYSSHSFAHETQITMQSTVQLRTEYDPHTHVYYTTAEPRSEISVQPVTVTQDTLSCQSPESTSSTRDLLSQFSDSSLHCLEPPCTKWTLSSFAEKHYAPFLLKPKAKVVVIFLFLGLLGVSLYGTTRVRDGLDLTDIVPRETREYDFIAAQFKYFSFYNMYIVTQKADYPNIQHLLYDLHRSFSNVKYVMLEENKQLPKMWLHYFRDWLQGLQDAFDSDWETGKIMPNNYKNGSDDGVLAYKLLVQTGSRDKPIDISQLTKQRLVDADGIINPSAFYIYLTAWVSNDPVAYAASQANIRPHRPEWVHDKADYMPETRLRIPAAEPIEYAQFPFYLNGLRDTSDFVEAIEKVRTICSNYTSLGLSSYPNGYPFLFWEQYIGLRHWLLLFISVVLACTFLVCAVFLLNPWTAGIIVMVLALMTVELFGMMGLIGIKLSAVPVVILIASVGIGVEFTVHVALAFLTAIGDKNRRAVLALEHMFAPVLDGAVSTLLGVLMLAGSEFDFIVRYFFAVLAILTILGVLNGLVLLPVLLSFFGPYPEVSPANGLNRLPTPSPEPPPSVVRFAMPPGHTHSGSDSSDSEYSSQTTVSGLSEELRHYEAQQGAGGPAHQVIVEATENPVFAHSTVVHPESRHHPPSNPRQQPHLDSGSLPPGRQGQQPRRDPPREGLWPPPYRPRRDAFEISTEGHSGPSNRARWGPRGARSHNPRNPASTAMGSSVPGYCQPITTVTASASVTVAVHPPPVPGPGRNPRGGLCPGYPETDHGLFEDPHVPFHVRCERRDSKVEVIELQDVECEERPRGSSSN
B2: Cell adhesion molecule-related/down-regulated by oncogenes (Rattus norvegicus (Rat)), O35158 (parent)
chain: B1 chain
partner: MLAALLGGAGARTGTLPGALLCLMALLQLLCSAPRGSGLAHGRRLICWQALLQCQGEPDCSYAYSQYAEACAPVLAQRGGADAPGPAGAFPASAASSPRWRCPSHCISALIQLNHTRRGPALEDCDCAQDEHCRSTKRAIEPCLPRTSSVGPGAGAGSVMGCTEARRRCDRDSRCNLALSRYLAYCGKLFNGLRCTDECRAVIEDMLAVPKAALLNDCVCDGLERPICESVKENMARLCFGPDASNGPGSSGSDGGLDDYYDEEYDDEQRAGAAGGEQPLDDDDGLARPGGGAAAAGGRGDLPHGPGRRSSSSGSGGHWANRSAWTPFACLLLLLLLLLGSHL
B3: Cell adhesion molecule-related/down-regulated by oncogenes (Rattus norvegicus (Rat)), O35158 (parent)
chain: B1 chain
partner: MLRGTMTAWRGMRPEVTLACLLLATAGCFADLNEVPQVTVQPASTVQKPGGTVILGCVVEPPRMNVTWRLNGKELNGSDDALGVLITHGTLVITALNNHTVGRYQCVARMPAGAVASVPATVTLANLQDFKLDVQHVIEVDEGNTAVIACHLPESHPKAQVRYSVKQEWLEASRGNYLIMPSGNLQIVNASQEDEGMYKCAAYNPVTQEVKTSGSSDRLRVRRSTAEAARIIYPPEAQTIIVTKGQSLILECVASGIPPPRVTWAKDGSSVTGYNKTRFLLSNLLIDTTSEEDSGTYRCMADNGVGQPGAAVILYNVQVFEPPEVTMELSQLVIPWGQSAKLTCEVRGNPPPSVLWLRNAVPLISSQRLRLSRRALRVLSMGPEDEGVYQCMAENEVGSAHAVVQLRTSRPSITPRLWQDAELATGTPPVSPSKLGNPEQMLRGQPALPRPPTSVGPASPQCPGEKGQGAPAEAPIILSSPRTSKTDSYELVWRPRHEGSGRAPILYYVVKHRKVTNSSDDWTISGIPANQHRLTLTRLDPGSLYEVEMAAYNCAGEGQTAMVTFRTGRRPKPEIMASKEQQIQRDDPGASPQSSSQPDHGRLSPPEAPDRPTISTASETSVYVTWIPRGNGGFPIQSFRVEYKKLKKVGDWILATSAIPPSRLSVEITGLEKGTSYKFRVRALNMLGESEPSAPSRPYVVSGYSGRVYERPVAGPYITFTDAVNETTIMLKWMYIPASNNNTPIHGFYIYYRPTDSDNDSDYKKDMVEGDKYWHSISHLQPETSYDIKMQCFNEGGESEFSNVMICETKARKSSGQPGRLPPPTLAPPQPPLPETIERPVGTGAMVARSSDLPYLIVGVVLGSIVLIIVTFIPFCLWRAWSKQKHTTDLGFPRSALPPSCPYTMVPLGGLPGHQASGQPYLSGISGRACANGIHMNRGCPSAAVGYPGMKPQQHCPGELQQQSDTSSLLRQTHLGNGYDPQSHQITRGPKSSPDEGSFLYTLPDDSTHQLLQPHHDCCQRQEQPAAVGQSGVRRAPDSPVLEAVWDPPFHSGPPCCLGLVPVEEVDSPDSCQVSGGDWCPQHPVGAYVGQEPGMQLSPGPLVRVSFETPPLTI

Variants of: B1
Details: with ptc1_human PTCH1, Q13635

effect of a mutation on the interaction | Variant
decreasing interaction strength | S937R
decreasing interaction strength | I787A
decreasing interaction strength | V688M
decreasing interaction strength | P686A
decreasing interaction strength | V777E
with no effect | T681S

Variants of: B2
Details: with gas1_mouse Gas1, Q01721

effect of a mutation on the interaction | Variant
decreasing interaction strength | S937R
with no effect | V777E
decreasing interaction strength | I787A
decreasing interaction strength | P686A
with no effect | V688M
with no effect | T681S

Variants of: B3
Details: with boc_human BOC

Variant | effect of a mutation on the interaction
V688M | with no effect
V777E | with no effect
P686A | decreasing interaction strength

Results, then the variant that gave them:

effect of a mutation on the interaction | Variant
with no effect | I787A
with no effect | S937R
with no effect | T681S
